The values below are quoted from earlier work in patent US20220023273A1, “METHODS FOR TREATING SYMPTOMS AND DISORDERS ASSOCIATED WITH LYSOSOMAL STORAGE DISEASES” (GENZYME CORPORATION, priority 2019, published 2022).

For the series, the system named is plasma GL-3. The conditions noted are these: after 156 weeks; matched historical phase 3 trial patients treated with agalsidase beta; cited from earlier work.

B1: agalsidase beta: semisynthetic enzyme agalsidase beta (alpha-galactosidase), enzyme replacement therapy for Fabry disease (protein, UniProt P06280 32-429, looked up)
Alpha-galactosidase A: LDNGLARTPTMGWLHWERFMCNLDCQEEPDSCISEKLFMEMAELMVSEGWKDAGYEYLCIDDCWMAPQRDSEGRLQADPQRFPHGIRQLANYVHSKGLKLGIYADVGNKTCAGFPGSFGYYDIDAQTFADWGVDLLKFDGCYCDSLENLADGYKHMSLALNRTGRSIVYSCEWPLYMWPFQKPNYTEIRQYCNHWRNFADIDDSWKSIKSILDWTSFNQERIVDVAGPGGWNDPDMLVIGNFGLSWNQQVTQMALWAIMAAPLFMSNDLRHISPQAKALLQDKDVIAINQDPLGKQGYQLRQGDNFEVWERPLSGLAWAVAMINRQEIGGPRSYTIAVASLGKGVACNPACFITQLLPVKRKLGFYEWTSRLRSHINPTGTVLLQLENTMQMSLKDLL
In the case of B1, the “Plasma GL-3 levels” value is 4.44 µg/mL.
